Measured values as given in patent publication US20240182547A1.
Substitutions are numbered along the chain they refer to.

B1: 12A1 (antibody, V domains shown)
VH: EVQLVESGGGLIQPGGSLRLSCAGSGFTFSSYTMHWVRQAPGKGLEWVSSITGGSSYVDYSASVKGRFTISRDNAQSSLYLQMNSLRAEDTAVYYCARDDYGSGSYSNWFDPWGQGTLVTVSS
VL: QSVLTQPPSVSGAPGQRVTISCTGSSSDIGAGYDVHWYQQLPGTAPKLLIFANTNRPSGVPDRFSGSKSGASASLAITGLQADDEADYYCQSYDRSLSHVFGTGTKVTVLG
B2: #12m (antibody, V domains shown)
VH: EVQLVESGGGLVKPGGSLRLSCAGSGFAFSSYTMHWVRQAPGKGLEWVSSITGGSSYLDYAHSVKGRFTISRDNGQNSLFLQMNSLRTEDTAVYYCARDDYGSGSYSNYFDPWGQGTLVTVSS
VL: B1 VL with D28N, L41V, A52G, N53S, A82T, D83E
B3: 3H8 (antibody, V domains shown)
VH: B1 VH with I12V, Q13K, Q115R, L118T
VL: B1 VL with S2P, P8L, V10A, A13T, D28N, T44R, A71T, D83E
B4: 2H1 (antibody, V domains shown)
VH: B1 VH with E1Q, Q3T, V5K, L11V, I12V, P14S, G16R, G24A
VL: B1 VL with D28N, T44R, F51Y, P61A
B5: 12B11 (antibody, V domains shown)
VH: EVQLVESGGGVVQPGRSLRLACAASGFTFNSYAMHWVRQAPGKGLEWVSSITGGSSYVDYSASVKGRFTISRDNAQSSLYLQMNSLRAEDTAVYYCARDMYGLGSYYSPNYFDPWGQGTLVTVSS
VL: B1 VL with Q1S, S2Y, V3E, D28N, T44R, A71T, D83E, R95S, H99Y
B6: 10E7 (antibody, V domains shown)
VH: EVQLVESGGGLVKPGGSLRLSCAASGFTFTSYRMHWVRQAPGKGLEWVSSITGGGNYIEYADSVKGRFTISRDNAKNSLDLQMNSLRAEDTAIYYCARDMYGLGSYYSPNYFDSWGQGTLVTVSS
VL: B1 VL with D28N, T44R
B7: 4G1 (antibody, V domains shown)
VH: QVTLKESGGGLVKPGGSLRLSCAASGFRLSSYGMNWVRQAPGKGLEWVSSISASSSFINYADSVRDRFTISRDNAKNSLYLQMNSLRAEDTAVYYCARDDYGSGSYSNWFDPWGQGTLVTVSS
VL: B1 VL with S25N, D28N, I29L, T44R, G79S

These binders were tested against recombinant F-protein (respiratory syncytial virus (RSV)) (UniProt P03420) (assay: SPR Biacore T-200, antibody captured on protein A chip, F-protein as analyte).
Chain of recombinant F-protein (respiratory syncytial virus (RSV)) (P03420 whole entry): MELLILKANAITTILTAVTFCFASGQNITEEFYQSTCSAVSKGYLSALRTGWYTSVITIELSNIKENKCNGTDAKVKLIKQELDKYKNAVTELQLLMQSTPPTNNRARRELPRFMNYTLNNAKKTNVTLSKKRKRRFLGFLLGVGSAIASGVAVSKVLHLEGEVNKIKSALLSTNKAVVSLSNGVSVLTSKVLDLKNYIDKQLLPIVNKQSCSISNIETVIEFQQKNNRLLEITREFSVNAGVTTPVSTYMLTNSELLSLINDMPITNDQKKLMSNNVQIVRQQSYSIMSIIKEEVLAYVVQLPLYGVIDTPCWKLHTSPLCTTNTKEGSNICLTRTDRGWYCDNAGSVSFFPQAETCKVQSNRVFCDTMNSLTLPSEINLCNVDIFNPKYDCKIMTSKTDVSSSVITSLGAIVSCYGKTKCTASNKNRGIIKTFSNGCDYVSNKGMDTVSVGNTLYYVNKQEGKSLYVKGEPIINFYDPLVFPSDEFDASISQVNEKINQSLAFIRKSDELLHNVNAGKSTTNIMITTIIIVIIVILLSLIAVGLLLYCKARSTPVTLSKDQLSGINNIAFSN

| Binder | Kd [nM] | koff [s⁻¹] | kon [M⁻¹ s⁻¹] |
| --- | --- | --- | --- |
| B1 | 0.0114 | 3.18e-05 | 2.8e+06 |
| B2 | 0.00677 | 2.07e-05 | 3.06e+06 |
| B3 | 0.00397 | 6.06e-05 | 1.53e+07 |
| B4 | 0.00384 | 5.74e-05 | 1.5e+07 |
| B5 | 0.0115 | 2.89e-05 | 2.52e+06 |
| B6 | 0.0138 | 2.81e-05 | 2.03e+06 |
| B7 | 0.0341 | 6.02e-05 | 1.77e+06 |
